Test results reported in publication PMC2795169, “The Influence of Recombinant Production on the Immunologic Behavior of Birch Pollen Isoallergens” (PLoS ONE, 2009).

T1: Bet v 1.0401 (Betula pendula, UniProt P43177)
T1 construct: gene BETV1D; full-length non-fusion protein, no tag, pET28b (Nco I/Eco RI), E. coli BL21 Star (DE3), codon-optimized gene, batch B purified without denaturation
T1 sequence (P43177 2-160): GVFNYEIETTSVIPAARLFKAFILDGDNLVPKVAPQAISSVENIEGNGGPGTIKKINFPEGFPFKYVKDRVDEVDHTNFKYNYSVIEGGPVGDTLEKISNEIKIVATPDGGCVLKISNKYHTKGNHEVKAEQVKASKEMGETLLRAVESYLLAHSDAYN


Columns and labels:
[1] = target: T1, Bet v 1.0401; experiment: ANS fluorescence titration, nonlinear regression; format: binding
[2] = target: P43177; experiment: dynamic light scattering; DLS in aqueous solution at a concentration of 1 mg/ml; details: other: dynamic light scattering
[3] = target: Recombinant Bet v 1.0401 production batch A (birch) (UniProt P43177); experiment: SEC-MALS; online HPSEC-light scattering (refractive index and right-angle light scattering), 0.5 ml/min, 0.1 M sodium phosphate pH 6.5, 150 mM sodium chloride

Molecule	Kd [1] [µM]	percent of the protein as aggregates (RH 16 nm) by DLS [2]	percent of the protein as multimers of more than 2,000 kDa [3] [%]	percent of the protein as small oligomers of 70–80 kDa [3] [%]	stoichiometry N [3]
O=S(=O)(O)c1cccc2cccc(Nc3ccccc3)c12 [8-anilino-1-naphtalenesulfonic acid]	21.2	–	–	–	–
Recombinant Bet v 1.0401 production batch A (protein) MGVFNYEIETTSVIPAARLFKAFILDGDNLVPKVAPQAISSVENIEGNGGPGTIKKINFPEGFPFKYVKDRVDEVDHTNFKYNYSVIEGGPVGDTLEKISNEIKIVATPDGGCVLKISNKYHTKGNHEVKAEQVKASKEMGETLLRAVESYLLAHSDAYN	–	34% RH of 16±8 nm	2	12	4
